Data on three substances can be found in patent US10800847.

Assay [1] addresses HLA-A*6802 (A68) single antigen on Luminex beads (human). Put plainly: Luminex single antigen bead assay, iBeads (#6), IVIg 1:4.
Assay [2] has as its target HLA-A*8001 (A80) single antigen on Luminex beads (human). The assay is described as above.
Assay [3] concerns the target HLA-A*7401 (A74) single antigen on Luminex beads (human). Described as above.
Assay [4] concerns the target HLA-A*6901 (A69) single antigen on Luminex beads (human). The description is as above.
Assay [5] addresses HLA-Cw*0801 (Cw8) (human). Description: Luminex, iBead vs regular bead MFI, 1:4.
Assay [6] has as its target HLA-Cw*0702 (Cw7) (human). Description: Luminex, iBead vs regular bead MFI, 1:4.
Assay [7] has as its target HLA-Cw*0602 (Cw6) (human). Put plainly: Luminex, iBead vs regular bead MFI, 1:4.
Assay [8] deals with HLA-Cw*1203 (Cw12) (human). Description: Luminex, iBead vs regular bead MFI, 1:4.
Assay [9] deals with HLA-Cw*0304 (Cw10) (human). Put plainly: Luminex, iBead vs regular bead MFI, 1:4.
Assay [10] deals with HLA-Cw*0102 (Cw1) (human). Put plainly: Luminex, iBead vs regular bead MFI, 1:4.
In assay [11] the target is HLA-B*4501 (B45) single antigen on Luminex beads (human). Put plainly: Luminex single antigen, iBeads (#6), IVIg 1:8.
For assay [12], the target named is HLA-B*3701 (B37) single antigen on Luminex beads (human). Description: Luminex single antigen, iBeads (#6), IVIg 1:8.
In assay [13] the target is HLA-B*4101 (B41) single antigen on Luminex beads (human). Description: Luminex single antigen, iBeads (#6), IVIg 1:8.
The target in assay [14] is HLA-B*2705 (B27) single antigen on Luminex beads (human). Put plainly: Luminex single antigen, iBeads (#6), IVIg 1:8.
Assay [15] deals with HLA-B*4001 (B60) single antigen on Luminex beads (human). Description: Luminex single antigen, iBeads (#6), IVIg 1:8.
Assay [16] addresses HLA-B*4402 (B44) single antigen on Luminex beads (human). Put plainly: Luminex single antigen, iBeads (#6), IVIg 1:8.
For assay [17], the target named is HLA-B*4006 (B61) single antigen on Luminex beads (human). Put plainly: Luminex single antigen, iBeads (#6), IVIg 1:8.
The target in assay [18] is HLA-B*4601 (B46) single antigen on Luminex beads (human). Description: Luminex single antigen, iBeads (#6), IVIg 1:8.
The target of assay [19] is HLA-B*4701 (B47) single antigen on Luminex beads (human). Put plainly: Luminex single antigen, iBeads (#6), IVIg 1:8.
Assay [20] has as its target HLA-B*3901 (B39) single antigen on Luminex beads (human). Put plainly: Luminex single antigen, iBeads (#6), IVIg 1:8.
Assay [21] has as its target HLA-B*3801 (B38) single antigen on Luminex beads (human). Description: Luminex single antigen, iBeads (#6), IVIg 1:8.
Assay [22] concerns the target HLA-B*3501 (B35) single antigen on Luminex beads (human). Put plainly: Luminex single antigen, iBeads (#6), IVIg 1:8.
For assay [23], the target named is HLA-B*4403 (B44) single antigen on Luminex beads (human). Put plainly: Luminex single antigen, iBeads (#6), IVIg 1:8.
In assay [24] the target is HLA-B*2708 (B27) single antigen on Luminex beads (human). Description: Luminex single antigen, iBeads (#6), IVIg 1:8.
Assay [25] deals with HLA-B*4201 (B42) single antigen on Luminex beads (human). Put plainly: Luminex single antigen, iBeads (#6), IVIg 1:8.
Assay [26] deals with HLA-B*4002 (B61) single antigen on Luminex beads (human). Put plainly: Luminex single antigen, iBeads (#6), IVIg 1:8.
Assay [27] concerns the target HLA-B*3701 (B37) single antigen on Luminex beads (human). Put plainly: Luminex single antigen, iBead vs regular bead, IVIg 1:8.
For assay [28], the target named is HLA-B*4101 (B41) single antigen on Luminex beads (human). The assay is described as above.
Assay [29] has as its target HLA-B*2705 (B27) single antigen on Luminex beads (human). Described as above.
The target in assay [30] is HLA-B*4001 (B60) single antigen on Luminex beads (human). The assay is described as above.
The target of assay [31] is HLA-B*4402 (B44) single antigen on Luminex beads (human). The description is as above.
The target in assay [32] is HLA-B*4006 (B61) single antigen on Luminex beads (human). The description is as above.
Assay [33] has as its target HLA-B*4701 (B47) single antigen on Luminex beads (human). The assay is described as above.
The target in assay [34] is HLA-B*3901 (B39) single antigen on Luminex beads (human). The assay is described as above.
For assay [35], the target named is HLA-B*3801 (B38) single antigen on Luminex beads (human). The description is as above.
The target of assay [36] is HLA-B*3501 (B35) single antigen on Luminex beads (human). The assay is described as above.
Assay [37] concerns the target HLA-B*4403 (B44) single antigen on Luminex beads (human). The assay is described as above.
Assay [38] has as its target HLA-B*2708 (B27) single antigen on Luminex beads (human). Described as above.
Assay [39] deals with HLA-B*4201 (B42) single antigen on Luminex beads (human). Described as above.
The target of assay [40] is HLA-B*4002 (B61) single antigen on Luminex beads (human). The assay is described as above.
For a further assay, the target named is HLA-B*1401 (B64) (human). Put plainly: Luminex iBeads (#6), IVIg diluted 1:8.

As to “IVIg Sandoglobulin (Novartis, Basel, Switzerland) (antibody)”, the MFI in assay [1] is 596 MFI; in assay [2], 564 MFI; in assay [3], 316 MFI; in assay [4], 788 MFI. In addition, the Difference % in [5] is -42%; in assay [6], -62%; in assay [7] it was -60%; in [8] it was -35%; in assay [9] it was -38%; in [10] it was -49%.
“Octagam (IVIg, Octapharma, Lachen, Switzerland) (antibody)”: the MFI worked out at 308 MFI in assay [11]; 0 MFI in [12]; 0 MFI in assay [13]; 0 MFI in [14]; 4 MFI in assay [15]; 702 MFI in assay [16]. Also, the MFI was determined as 167 MFI in [17]; 526 MFI in assay [18]; 955 MFI in [19]; 0 MFI in [20]; 0 MFI in assay [21]; 0 MFI in assay [22]. Also, the MFI in [23] is 698 MFI; in assay [24] it was 0 MFI; in assay [25] it was 0 MFI; in [26], 0 MFI. For the same substance, the Difference % (iBead against regular bead MFI) in assay [27] is -100%; in assay [28] it was -100%; in assay [29], -100%; in [30], -100%; in [31], -82%; in assay [32], -97%. Further, the Difference % (iBead against regular bead MFI) in [33] is -57%; in assay [34] it was 0%; in [35], -100%; in assay [36], -100%; in assay [37] it was -39%; in assay [38], -100%. The Difference % (iBead against regular bead MFI) in assay [39] and in [40] was -100% in each case.
“IVIg GamaSTAN S/D (Talecris Biotherapeutics, USA) (antibody)” had an MFI with HLA-B*1401 (B64) (human) of 269 MFI.
